Experimental data from US20250215412A1 (NOVOZYMES A S, published 2025).

Assays:
Assay in all cases: cell-based or functional assay
[1] = biological target: T1, Chryseobacterium sp-62563 deamidase Q126N (Chryseobacterium sp-62563)
T1 sequence: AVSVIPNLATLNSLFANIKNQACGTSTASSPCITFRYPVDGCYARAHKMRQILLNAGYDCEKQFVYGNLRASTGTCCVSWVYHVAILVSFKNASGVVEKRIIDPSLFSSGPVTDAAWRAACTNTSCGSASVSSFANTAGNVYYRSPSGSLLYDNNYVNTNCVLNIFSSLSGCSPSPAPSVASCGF

[2] = biological target: T2, Chryseobacterium sp-62563 deamidase Q130D (Chryseobacterium sp-62563)
T2 sequence: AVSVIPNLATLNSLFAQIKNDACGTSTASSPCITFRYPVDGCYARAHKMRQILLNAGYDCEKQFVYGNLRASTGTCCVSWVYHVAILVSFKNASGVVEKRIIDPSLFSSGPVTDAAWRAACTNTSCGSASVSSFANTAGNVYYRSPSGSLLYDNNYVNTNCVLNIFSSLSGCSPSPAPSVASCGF

[3] = biological target: T3, Chryseobacterium sp-62563 deamidase V190D (Chryseobacterium sp-62563)
T3 chain: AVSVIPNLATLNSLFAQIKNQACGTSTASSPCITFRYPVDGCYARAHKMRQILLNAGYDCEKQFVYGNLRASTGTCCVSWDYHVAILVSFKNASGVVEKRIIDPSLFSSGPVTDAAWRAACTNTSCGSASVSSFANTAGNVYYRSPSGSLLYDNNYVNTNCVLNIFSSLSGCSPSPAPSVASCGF

[4] = biological target: T4, Chryseobacterium sp-62563 deamidase V190F (Chryseobacterium sp-62563)
T4 chain: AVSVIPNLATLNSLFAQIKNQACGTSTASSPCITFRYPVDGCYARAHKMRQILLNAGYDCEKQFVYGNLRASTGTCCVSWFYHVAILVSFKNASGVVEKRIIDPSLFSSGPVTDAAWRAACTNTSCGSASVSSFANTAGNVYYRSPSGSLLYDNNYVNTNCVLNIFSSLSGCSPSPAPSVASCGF

[5] = biological target: T5, Chryseobacterium sp-62563 deamidase V190G (Chryseobacterium sp-62563)
T5 chain: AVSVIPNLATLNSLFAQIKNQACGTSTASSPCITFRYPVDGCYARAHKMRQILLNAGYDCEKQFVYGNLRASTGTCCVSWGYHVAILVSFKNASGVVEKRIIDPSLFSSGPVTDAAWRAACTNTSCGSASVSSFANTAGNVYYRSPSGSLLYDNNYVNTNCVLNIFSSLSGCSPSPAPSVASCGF

[6] = biological target: T6, Chryseobacterium sp-62563 deamidase V190K (Chryseobacterium sp-62563)
T6 chain: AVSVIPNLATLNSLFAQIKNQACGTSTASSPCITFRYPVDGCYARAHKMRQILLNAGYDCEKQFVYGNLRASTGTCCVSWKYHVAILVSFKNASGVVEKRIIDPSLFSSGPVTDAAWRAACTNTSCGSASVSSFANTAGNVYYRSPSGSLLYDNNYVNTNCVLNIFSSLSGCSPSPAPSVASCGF

[7] = biological target: T7, Chryseobacterium sp-62563 deamidase V190M (Chryseobacterium sp-62563)
T7 chain: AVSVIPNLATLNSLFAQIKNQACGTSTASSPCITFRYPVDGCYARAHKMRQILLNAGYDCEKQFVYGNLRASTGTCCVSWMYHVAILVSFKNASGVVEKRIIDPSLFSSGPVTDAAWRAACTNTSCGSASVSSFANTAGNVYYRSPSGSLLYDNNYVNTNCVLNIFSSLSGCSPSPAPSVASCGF

[8] = biological target: T8, Chryseobacterium sp-62563 deamidase V190P (Chryseobacterium sp-62563)
T8 chain: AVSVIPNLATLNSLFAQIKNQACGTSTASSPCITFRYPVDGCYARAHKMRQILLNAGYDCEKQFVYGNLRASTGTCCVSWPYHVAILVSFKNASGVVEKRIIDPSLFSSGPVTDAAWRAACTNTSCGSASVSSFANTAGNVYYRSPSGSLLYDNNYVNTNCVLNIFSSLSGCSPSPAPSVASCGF

[9] = biological target: T9, Chryseobacterium sp-62563 deamidase V190Q (Chryseobacterium sp-62563)
T9 chain: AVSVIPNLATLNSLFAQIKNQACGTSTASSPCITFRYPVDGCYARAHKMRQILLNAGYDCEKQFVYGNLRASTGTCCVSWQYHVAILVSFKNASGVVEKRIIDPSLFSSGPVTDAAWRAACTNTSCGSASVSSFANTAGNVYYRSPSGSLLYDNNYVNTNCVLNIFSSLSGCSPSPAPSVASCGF

[10] = biological target: T10, Chryseobacterium sp-62563 deamidase L260E (Chryseobacterium sp-62563)
T10 chain: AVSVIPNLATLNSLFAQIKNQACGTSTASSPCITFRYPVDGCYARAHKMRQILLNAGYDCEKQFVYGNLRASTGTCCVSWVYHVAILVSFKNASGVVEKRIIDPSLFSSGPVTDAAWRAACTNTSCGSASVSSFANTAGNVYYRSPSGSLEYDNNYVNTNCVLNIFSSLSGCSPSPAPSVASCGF

[11] = biological target: T11, Chryseobacterium sp-62563 deamidase L260K (Chryseobacterium sp-62563)
T11 chain: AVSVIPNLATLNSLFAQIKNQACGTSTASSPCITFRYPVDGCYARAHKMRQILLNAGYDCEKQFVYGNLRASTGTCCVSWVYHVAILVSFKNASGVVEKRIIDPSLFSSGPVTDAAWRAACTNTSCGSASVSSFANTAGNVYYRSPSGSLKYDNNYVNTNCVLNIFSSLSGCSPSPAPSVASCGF

[12] = biological target: T12, Chryseobacterium sp-62563 deamidase Y261P (Chryseobacterium sp-62563)
T12 chain: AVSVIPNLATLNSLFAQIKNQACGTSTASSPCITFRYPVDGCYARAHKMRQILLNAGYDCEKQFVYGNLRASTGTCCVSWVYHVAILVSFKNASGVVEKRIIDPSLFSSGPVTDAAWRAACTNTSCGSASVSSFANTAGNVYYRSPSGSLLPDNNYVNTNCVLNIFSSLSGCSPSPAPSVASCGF

B1: Chryseobacterium sp-62563 propeptide F99A (protein)
chain: NQDPNLVAKESNETAMKDFGKTVPVGIEKEDGKFKISFMVTAQPYEIKDSKENAAYISMIKTAVENETPIHVFLKANTNEIAKVDKATDDDIRYFKSVATKEVKEENRK
Relative activity of maturated deamidase (% initial rate) [1]: > 100
Relative activity of maturated deamidase (% initial rate) [2]: > 100

B2: Chryseobacterium sp-62563 propeptide (first polypeptide, propeptide domain), wildtype (other)
chain: NQDPNLVAKESNETAMKDFGKTVPVGIEKEDGKFKISFMVTAQPYEIKDSKENAAYISMIKTAVENETPIHVFLKANTNEIAKVDKATDDDIRYFKSVFTKEVKEENRK
Relative activity of maturated deamidase [3]: 30 % initial rate
Relative activity of maturated deamidase [4]: ≥ 100 % initial rate
Relative activity of maturated deamidase [5]: ≥ 100 % initial rate
Relative activity of maturated deamidase [6]: 36 % initial rate
Relative activity of maturated deamidase [7]: 44 % initial rate
Relative activity of maturated deamidase [8]: 32 % initial rate
Relative activity of maturated deamidase [9]: 96 % initial rate
Relative activity of maturated deamidase [10]: 53 % initial rate
Relative activity of maturated deamidase [11]: 73 % initial rate
Relative activity of maturated deamidase [12]: 32 % initial rate
